This is an account of results in patent US20250084143A1 (INSERM INSTITUT NATIONAL DE LA SANT ET DE LA RECHERCHE M …, published 2025).

This assay concerns the target T1, biotin-tagged HLA-A*03:01 monomers (immunAware) (human, biotin tag).
T1 construct: Bought recombinant monomer folded with the test peptide; also called HLA-A3; A3
The assay can be described thus: flow cytometry on streptavidin beads: folding of biotinylated HLA-A*03:01 monomer around the peptide, detected with anti-b2m; 1.2 nM complex. (In flow cytometry, cells or beads pass a laser one at a time.)

Method: Experimental binding to HLA-A3 was measured by flow cytometry using biotin-tagged HLA-A*03:01 monomers (immunAware). […] The bead-associated fluorescence is only detected if the test peptide supports the folding of the HLA-A3 complex. […] The HLA-A3-binding peptide Flu NP₂₆₅₋₂₇₃ ([sequence]), and a non-binding peptide CHGA₃₈₂₋₃₉₀ ([sequence]) were included as positive and negative controls, respectively.
A first selection was performed based on a novel HLA Class I binding assay that we set up. Briefly, the same biotinylated recombinant HLA-A3 monomeric molecules that are used for MMr production are folded with the test peptides and captured on streptavidin-coated beads.

B1: SCG5-009 193-201 peptide (peptide)
peptide: RLKPSLVGK
notes: From the SCG5-009 mRNA splice variant
Turning to B1, the binding result is given as “binds”.
